Substrate: O=[N+]([O-])c1ccc(O[C@H]2O[C@H](CO)[C@@H](O)[C@H](O)[C@@H]2O)cc1
Assay: purified protein
Type: biochemical, Enterococcus faecalis
Conditions: apparent, MES 100 mM, pH 6.0, CaCl2 4 mM, 37 °C, 10 min

B1: EfMan-I (Enterococcus faecalis V583) (protein)
chain: MNIQAIDTRHGTANQHSFSNGNCLPYTGVPFGMNFYAPQTTDQKGSWWFHPEDRTFQGYRVTHQPSPWMGDFSHLLMTPVSGSLSELSLFHAQSSYRPEESLFSPVEINLTQLRYQITSQLIPSMYGGILTIDYQQKDNHLLLTLPGRYQVKQLDDHQVAVKVINYSGCEDPDFSFYFVLHFEQPLTKWFAPSSGEDGKILLSFGNIAQQVVHFSSSFISEKQAQLNLAREISLRSTEMLQQGIADWHNYFDRLKVTHENPEHTKTFYHTLYRTFLFPQTFYELDENQQPIHYDTFSQTVRPGVLYTNNGFWDTYKTVYPLFSLIAQEKYEEMLEGFLNSYNETGFLPKWLSPDERGLMPGTLIDAVIADAAVKKIRPDLMPQFLEAMKKGATQQSERENYGRQGTLDYLKYGYVPSTYHESVNHTLDYAYSDFCISQVAKTLNDSETATFYRQQALNYQQLFNPETGFMQAKDTEGNFRPDFLDIRWGKDYAEGSAWQSSFAVYQDFAGLIKLYGSELAFEKKLIQLCNQAPNFNVEGYGFEIHEMSEMAAIDFGQLAISNQPSFHYPFLFSYIGKPEMAQPLLKQLMQTFDASPTGYPGDEDNGSMSAWYIFNSLGFYPVTPGTGEYVIGMPLVQTAEVKLSNGKQLTIQTSPNKVQQQFIHEIQLNQEKHTAPYFTHQELLNGGTLDYQLGIVPNPQNTAERPFSLSTEK
Km: 11 ± 1.7 mM
kcat: 0.49 ± 0.03 s⁻¹
kcat/Km: 47 M⁻¹ s⁻¹
